Publication PMC11078644, “Nesprin-2 is a novel scaffold protein for telethonin and FHL-2 in the cardiomyocyte sarcomere” (The Journal of Biological Chemistry, 2024)

T1: His-telethonin (full length, pET DUET-1, N-terminal 6x Histidine tag), co-expressed with nesprin-2 SR51-53 (UniProt O15273 1-167)
T1 construct: telethonin, full length; printed mass 19 kDa; source: E. coli BL21(DE3)pLysS, co-expressed with nesprin-2 SR51-53, co-purified (His-trap, SEC); not shown: 6x His, N-terminal, kept
T1 sequence (looked up): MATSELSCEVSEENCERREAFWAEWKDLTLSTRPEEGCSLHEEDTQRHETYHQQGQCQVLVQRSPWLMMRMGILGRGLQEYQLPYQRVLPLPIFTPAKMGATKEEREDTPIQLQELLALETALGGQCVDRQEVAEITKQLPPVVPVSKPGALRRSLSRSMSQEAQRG

B1: nesprin-2 SR51-53 (no tag), co-expressed with His-telethonin (domain or fragment, human, UniProt Q8WXH0 6018-6354, looked up)
chain: KETFAFIQQLDKNMSNLRTWLARIESELSKPVVYDVCDDQEIQKRLAEQQDLQRDIEQHSAGVESVFNICDVLLHDSDACANETECDSIQQTTRSLDRRWRNICAMSMERRMKIEETWRLWQKFLDDYSRFEDWLKSAERTAACPNSSEVLYTSAKEELKRFEAFQRQIHERLTQLELINKQYRRLARENRTDTASRLKQMVHEGNQRWDNLQRRVTAVLRRLRHFTNQREEFEGTRESILVWLTEMDLQLTNVEHFSESDADDKMRQLNGFQQEITLNTNKIDQLIVFGEQLIQKSEPLDAVLIEDELEELHRYCQEVFGRVSRFHRRLTSCTPGL
notes: nesprin-2 giant, human, spectrin repeats 51-53, amino acids 6018-6354 of the full length of nesprin-2 giant; in CDF DUET-1 without a tag; printed mass 40.51 kDa; source: E. coli BL21(DE3)pLysS, co-expressed with His-telethonin, co-purified (His-trap, SEC)

Columns and labels:
[1] = target: nesprin-2, endogenous ~200 kDa band of neonatal rat heart and neonatal rat cardiomyocytes; assay: co-immunoprecipitation with telethonin antibody, Western blot densitometry; settings: lysates harvested 48 h after adenoviral infection, n = 5, parent: est. 1.0, read off a plot
[2] = target: T1, His-telethonin (full length, pET …); assay: SEC; His-telethonin and untagged nesprin-2 SR51-53 co-expressed in E. coli, His-trap, Superdex 200 16/60, then Superdex 75 10/300; 50 mM Tris/HCl pH 7.5, 150 mM NaCl, 100 mM βME; single peak at 10.29 ml, both proteins found by Western blot; settings: both partners purified

Molecule	ratio to parent [1]	stoichiometry N [2]
HA-tagged WT telethonin expressed from adenovirus in neonatal rat cardiomyocytes (from UniProt O15273) S157A; S161A	4.8	
B1		1 nesprin-2 SR51-53 per telethonin
